# Results: patent US20250353912A1 (NEW YORK UNIVERSITY, published 2025)
# Target: T1, HLA-A*02:01 in complex with the EGFR peptide … conjugated with osimertinib (human, osimertinib covalently bound to Cys)
# T1 construct: also called HLA-A*02:01_EGFR-osimertinib; osimertinib-EGFR/HLA-A*02
# Assay: yeast display
row,Binder,binding result
1,"EO_Q01 (scFv, V domains shown, yeast-display scFv) VH: EVQLVESGGGLVQPGGSLRLSCAASGFTISSSYIHWVRQAPGKGLEWVAYISPSYGSTSYADSVKGRFTISADTSKNTAYLQMNSLRAEDTAVYYCARELVTMTADYWGQGTLVTVSS VL: DIQMTQSPSSLSASVGDRVTITCRASQSVSSAVAWYQQKPGKAPKLLIYSASSLYSGVPSRFSGSRSGTDFTLTISSLQPEDFATYYCQQYSHWPITFGQGTKVEIKR",binds
2,"EO_Q13 (scFv, V domains shown, yeast-display scFv) VH: EVQLVESGGGLVQPGGSLRLSCAASGFTISSSYIHWVRQAPGKGLEWVAYISPSYGSTSYADSVKGRFTISADTSKNTAYLQMNSLRAEDTAVYYCARELTTMTADYWGQGTLVTVSS VL: DIQMTQSPSSLSASVGDRVTITCRASQSVSSAVAWYQQKPGKAPKLLIYSASSLYSGVPSRFSGSRSGTDFTLTISSLQPEDFATYYCQQYSHWPITFGQGTKVEIKR",binds
3,"EO_Q22 (scFv, V domains shown, yeast-display scFv) VH: EVQLVESGGGLVQPGGSLRLSCAASGFTISSSYIHWVRQAPGKGLEWVAYISPSYGSTSYADSVKGRFTISADTSKNTAYLQMNSLRAEDTAVYYCAREYVTMALDYWGQGTLVTVSS VL: DIQMTQSPSSLSASVGDRVTITCRASQSVSSAVAWYQQKPGKAPKLLIYSASSLYSGVPSRFSGSRSGTDFTLTISSLQPEDFATYYCQQYSHWPITFGQGTKVEIKR",binds
4,"EO_Q11 (scFv, V domains shown, yeast-display scFv) VH: EVQLVESGGGLVQPGGSLRLSCAASGFTISSSYIHWVRQAPGKGLEWVAYISPSYGSTSYADSVKGRFTISADTSKNTAYLQMNSLRAEDTAVYYCARELVTMTIDYWGQGTLVTVSS VL: DIQMTQSPSSLSASVGDRVTITCRASQSVSSAVAWYQQKPGKAPKLLIYSASSLYSGVPSRFSGSRSGTDFTLTISSLQPEDFATYYCQQYSGWPITFGQGTKVEIKR",binds
5,"EO_Q08 (scFv, V domains shown, yeast-display scFv) VH: EVQLVESGGGLVQPGGSLRLSCAASGFTISSSYIHWVRQAPGKGLEWVAYISPSYGSTSYADSVKGRFTISADTSKNTAYLQMNSLRAEDTAVYYCARELTEMTTDYWGQGTLVTVSS VL: DIQMTQSPSSLSASVGDRVTITCRASQSVSSAVAWYQQKPGKAPKLLIYSASSLYSGVPSRFSGSRSGTDFTLTISSLQPEDFATYYCQQYSSWPITFGQGTKVEIKR",binds
6,"EO_Q10 (scFv, V domains shown, yeast-display scFv) VH: EVQLVESGGGLVQPGGSLRLSCAASGFTISSSYIHWVRQAPGKGLEWVAYISPSYGSTSYADSVKGRFTISADTSKNTAYLQMNSLRAEDTAVYYCARELIEMTPDYWGQGTLVTVSS VL: DIQMTQSPSSLSASVGDRVTITCRASQSVSSAVAWYQQKPGKAPKLLIYSASSLYSGVPSRFSGSRSGTDFTLTISSLQPEDFATYYCQQYSGWPITFGQGTKVEIKR",binds
7,"EO_Q06 (scFv, V domains shown, yeast-display scFv) VH: EVQLVESGGGLVQPGGSLRLSCAASGFTISSSYIHWVRQAPGKGLEWVAYISPSYGSTSYADSVKGRFTISADTSKNTAYLQMNSLRAEDTAVYYCARESITMTKDYWGQGTLVTVSS VL: DIQMTQSPSSLSASVGDRVTITCRASQSVSSAVAWYQQKPGKAPKLLIYSASSLYSGVPSRFSGSRSGTDFTLTISSLQPEDFATYYCQQYSHWPITFGQGTKVEIKR",binds
8,"EO_Q03 (scFv, V domains shown, yeast-display scFv) VH: EVQLVESGGGLVQPGGSLRLSCAASGFTISSSYIHWVRQAPGKGLEWVAYISPSYGSTSYADSVKGRFTISADTSKNTAYLQMNSLRAEDTAVYYCARESVTMSADYWGQGTLVTVSS VL: DIQMTQSPSSLSASVGDRVTITCRASQSVSSAVAWYQQKPGKAPKLLIYSASSLYSGVPSRFSGSRSGTDFTLTISSLQPEDFATYYCQQYSAWPITFGQGTKVEIKR",binds
9,"EO_Q20 (scFv, V domains shown, yeast-display scFv) VH: EVQLVESGGGLVQPGGSLRLSCAASGFTISSSYIHWVRQAPGKGLEWVAYISPSYGSTSYADSVKGRFTISADTSKNTAYLQMNSLRAEDTAVYYCAREEVTMTPDYWGQGTLVTVSS VL: DIQMTQSPSSLSASVGDRVTITCRASQSVSSAVAWYQQKPGKAPKLLIYSASSLYSGVPSRFSGSRSGTDFTLTISSLQPEDFATYYCQQYSDWPITFGQGTKVEIKR",binds
10,"EO_Q07 (scFv, V domains shown, yeast-display scFv) VH: EVQLVESGGGLVQPGGSLRLSCAASGFTISSSYIHWVRQAPGKGLEWVAYISPSYGSTSYADSVKGRFTISADTSKNTAYLQMNSLRAEDTAVYYCARELTTMSIDYWGQGTLVTVSS VL: DIQMTQSPSSLSASVGDRVTITCRASQSVSSAVAWYQQKPGKAPKLLIYSASSLYSGVPSRFSGSRSGTDFTLTISSLQPEDFATYYCQQYAKWPITFGQGTKVEIKR",binds
11,"EO_Q02 (scFv, V domains shown, yeast-display scFv) VH: EVQLVESGGGLVQPGGSLRLSCAASGFTISSSYIHWVRQAPGKGLEWVAYISPSYGSTSYADSVKGRFTISADTSKNTAYLQMNSLRAEDTAVYYCAREYTTMSIDYWGQGTLVTVSS VL: DIQMTQSPSSLSASVGDRVTITCRASQSVSSAVAWYQQKPGKAPKLLIYSASSLYSGVPSRFSGSRSGTDFTLTISSLQPEDFATYYCQQYSAWPETFGQGTKVEIKR",binds
12,"EO_Q04 (scFv, V domains shown, yeast-display scFv) VH: EVQLVESGGGLVQPGGSLRLSCAASGFTISSSYIHWVRQAPGKGLEWVAYISPSYGSTSYADSVKGRFTISADTSKNTAYLQMNSLRAEDTAVYYCARESVTMTKDYWGQGTLVTVSS VL: DIQMTQSPSSLSASVGDRVTITCRASQSVSSAVAWYQQKPGKAPKLLIYSASSLYSGVPSRFSGSRSGTDFTLTISSLQPEDFATYYCQQYSDWPITFGQGTKVEIKR",binds
13,"EO_Q18 (scFv, V domains shown, yeast-display scFv) VH: EVQLVESGGGLVQPGGSLRLSCAASGFTISSSYIHWVRQAPGKGLEWVAYISPSYGSTSYADSVKGRFTISADTSKNTAYLQMNSLRAEDTAVYYCAREYVTMALDYWGQGTLVTVSS VL: DIQMTQSPSSLSASVGDRVTITCRASQSVSSAVAWYQQKPGKAPKLLIYSASSLYSGVPSRFSGSRSGTDFTLTISSLQPEDFATYYCQQYSAWPETFGQGTKVEIKR",binds
14,"EO_Q05 (scFv, V domains shown, yeast-display scFv) VH: EVQLVESGGGLVQPGGSLRLSCAASGFTISSSYIHWVRQAPGKGLEWVAYISPSYGSTSYADSVKGRFTISADTSKNTAYLQMNSLRAEDTAVYYCAREEVTMSIDYWGQGTLVTVSS VL: DIQMTQSPSSLSASVGDRVTITCRASQSVSSAVAWYQQKPGKAPKLLIYSASSLYSGVPSRFSGSRSGTDFTLTISSLQPEDFATYYCQQYAEWPITFGQGTKVEIKR",binds
15,"EO_Q09 (scFv, V domains shown, yeast-display scFv) VH: EVQLVESGGGLVQPGGSLRLSCAASGFTISSSYIHWVRQAPGKGLEWVAYISPSYGSTSYADSVKGRFTISADTSKNTAYLQMNSLRAEDTAVYYCAREEVTMTADYWGQGTLVTVSS VL: DIQMTQSPSSLSASVGDRVTITCRASQSVSSAVAWYQQKPGKAPKLLIYSASSLYSGVPSRFSGSRSGTDFTLTISSLQPEDFATYYCQQYSHWPITFGQGTKVEIKR",binds
16,"EO_Q23 (scFv, V domains shown, yeast-display scFv) VH: EVQLVESGGGLVQPGGSLRLSCAASGFTISSSYIHWVRQAPGKGLEWVAYISPSYGSTSYADSVKGRFTISADTSKNTAYLQMNSLRAEDTAVYYCAREYVTMALDYWGQGTLVTVSS VL: DIQMTQSPSSLSASVGDRVTITCRASQSVSSAVAWYQQKPGKAPKLLIYSASSLYSGVPSRFSGSRSGTDFTLTISSLQPEDFATYYCQQYSHWPETFGQGTKVEIKR",binds
17,"EO_Q12 (scFv, V domains shown, yeast-display scFv) VH: EVQLVESGGGLVQPGGSLRLSCAASGFTISSSYIHWVRQAPGKGLEWVAYISPSYGSTSYADSVKGRFTISADTSKNTAYLQMNSLRAEDTAVYYCARELTTMSIDYWGQGTLVTVSS VL: DIQMTQSPSSLSASVGDRVTITCRASQSVSSAVAWYQQKPGKAPKLLIYSASSLYSGVPSRFSGSRSGTDFTLTISSLQPEDFATYYCQQYASWPITFGQGTKVEIKR",binds
18,"EO_Q24 (scFv, V domains shown, yeast-display scFv) VH: EVQLVESGGGLVQPGGSLRLSCAASGFTISSSYIHWVRQAPGKGLEWVAYISPSYGSTSYADSVKGRFTISADTSKNTAYLQMNSLRAEDTAVYYCAREYVTMALDYWGQGTLVTVSS VL: DIQMTQSPSSLSASVGDRVTITCRASQSVSSAVAWYQQKPGKAPKLLIYSASSLYSGVPSRFSGSRSGTDFTLTISSLQPEDFATYYCQQYSEWPETFGQGTKVEIKR",binds
19,"EO_Q15 (scFv, V domains shown, yeast-display scFv) VH: EVQLVESGGGLVQPGGSLRLSCAASGFTISSSYIHWVRQAPGKGLEWVAYISPSYGSTSYADSVKGRFTISADTSKNTAYLQMNSLRAEDTAVYYCARELIEMTTDYWGQGTLVTVSS VL: DIQMTQSPSSLSASVGDRVTITCRASQSVSSAVAWYQQKPGKAPKLLIYSASSLYSGVPSRFSGSRSGTDFTLTISSLQPEDFATYYCQQYSHWPITFGQGTKVEIKR",binds
20,"EO_Q14 (scFv, V domains shown, yeast-display scFv) VH: EVQLVESGGGLVQPGGSLRLSCAASGFTISSSYIHWVRQAPGKGLEWVAYISPSYGSTSYADSVKGRFTISADTSKNTAYLQMNSLRAEDTAVYYCARESITMSPDYWGQGTLVTVSS VL: DIQMTQSPSSLSASVGDRVTITCRASQSVSSAVAWYQQKPGKAPKLLIYSASSLYSGVPSRFSGSRSGTDFTLTISSLQPEDFATYYCQQYSSWPITFGQGTKVEIKR",binds

# Target: T2, HLA-A*01:01 in complex with the BTK peptide … conjugated with Ibrutinib (human, ibrutinib covalently bound to Cys)
# T2 construct: also called HLA-A*01:01_BTK-Ibrutinib
# Assay: phage display selection; MBBA
row,Binder,binding result
1,"IBA1-4 (antibody, V domains shown, phage-display clone) VH: EVQLVESGGGLVQPGGSLRLSCAASGFTVSSSSIHWVRQAPGKGLEWVASIYSYSGSTYYADSVKGRFTISADTSKNTAYLQMNSLRAEDTAVYYCARQYSSSYYVWPGMDYWGQGTLVTVSS VL: DIQMTQSPSSLSASVGDRVTITCRASQSVSSAVAWYQQKPGKAPKLLIYSASSLYSGVPSRFSGSRSGTDFTLTISSLQPEDFATYYCQQYHYWASLITFGQGTKVEIKR",binds
